According to a protein production outcome set (Wang et al. 2014):

Experiment: label from the status in PepcDB records

| Sequence | protein production |
| --- | --- |
| MNKNTWIIGFTLFAMFFGAGNLIFPTQLGLESGHFFWPAILAFALTGIGLPLLGVVVGALDKHGYIGSFNKISPRFSLIFLIIIYLTIGPLFAIPRTASTSFEMSVTPIAQNSGNLALFIFTVIYFLIVLYLCLNPNKMIDRIGSLLTPLLLITIVAMIIKGFVDFSGHSSNYGMTNAYHSNLSGFSQGFTQGYLTMDAIASIAFSMIVVNAIKTTGIQHADKIFKQTIIAGLIAAIALVFIYISLGYIGNHINIPSDTLKELKAKDQNIGTYLLTTMATKGFGTFGKYLLGIIVSLACLTTACGLIVSVSEYFHRILPKIPYKVFVIFFILVSFILANQGLNSVIKMSVPVLSVIYPVAITVILLILIARFIPTKRIAQQIPLIIVAIESILSLITTQGWIRISFIDDLPLKEYSLEWFPIAVVATLVGYMISYFVKQSNIVYQKE | failed |
| MNKQIDLPIADVQGSLDTRHIAIDRVGIKAIRHPVVVADKGGGSQHTVAQFNMYVNLPHNFKGTHMSRFVEILNSHEREISVESFEEILRSMVSRLESDSGHIEMAFPYFINKSAPVSGVKSLLDYEVTFIGEIKHGNQYSFTMKVIVPVTSLCPCSKKISDYGAHNQRSHVTISVRTNSFIWIEDIIRIAEEQASCELYGLLKRPDEKYVTERAYNNPKFVEDIVRDVAEVLNHDDRIDAYIVESENFESIHNHSAYALIERDKRIR | not failed |
| MNKRCEEVLRRYFAEVPFIIEKACELAESMLGEGSHGLSHTIRVLDLALQIGRVEGANLEVLALAAILHDIARPLEDKGRIKDHAQEGARIVRSFLSKLRYPHVDEVAHAIEAHRFSTNIEPRTLEAKILSDADKIDALGAIGIARVFMYAGEKGRSIEDSIKHFEEKILRLKDLMYTETGKRIAQERHKIVEEFVNILKKELILEHHHHHH | not failed |
| MNKRFFPRIDLPLLMAIIPIMLLSSLTLWSASGFDESMLFKHLARCALTLVCILVMSSIPAASYQRSAPYLYFVAVSLLLAVALFGDSTNGSQRWLDIGFFRFQPSELIKLSIPIMIAWMLHLEGGRPDFRKIALCLMITLVPAGLIALQPDLDGAIFTVIYALFVLFFAGMSWKIIGGFVVSVLTLAPILWFFVMEAYQKSRVTQFLHPESDPLGSGYQIIQSLIAIGSGGMKGKGWMNATQGTLGFIPESHTDFIFSTYAEEWGFIGCVVLLALYLFITARVMLLACQSEHFFSRLVSGTLAMSFFLYAFINTGMVSGLLPVMGSPLPFFSYGGTAMLTQGICFGVIMSLCYSKYRNT | failed |
| MNKTMAKSLSVIIPACNEVDTISDVIQSVRPLNPVEIIVVANGCNDGTEDVADRLGCKVIKHTELLGNDVGRAVGAKHAIGDVLLFIDGDFAIPTSKLKLFLNPILYDQADVVLNNLDALFLKRQKTTSITVWRQILNAMLEREELKMNSLLDVPHALTKEVVQSIGYECFVNPIVAHLRLVQSKWRISRHCAIDVITPNKFRPFQHAAYGTNLSQSEKRMIGDHIEAVAERILSSDERGGYYDGNRKRDSVYHTLSFEEFYQGWGVTSDFYKGKQLSVVIPVQDEEKTIGNVIEELRKIEPFEIIVVVNGSSDKTKKIAKDKGATTIVYKEALGNDVGRSLGTYFAKGEIVLFIDGDFVIPASELYPFAKAIADGTDVALNDLNHYLDLRVPLHLVTAFKYALNLACDRKDLGVGSLIAVPNAFSRKCLKEIGYRSLLAPCVAQVKAILSGFEVACVSRVEVDKMNRIRPSEHFAKIGHPPAVLRIIGDHIEGLDQIIALTDNRGGFYDGNRKRDVLLEHHHHHH | failed |
| MNLDETLLNRIKVIALLNLKLVRKLVIFIMVNCLVLSGIPAALCMSSAPVVYVTGDGSGDFNCDGTDDHVQINQALKFVAENSAYTTVYLKGPFTYVIDDTLLIGSNTILEGDSSAKIKLVNNANWESRKPMIKERSTGISGITIRGFTIDGNREGNTNVVSGKGYYNLIHLSSCQNIKVYDMYLTNNHGDGLKTDKCTNVEFYDNEIYLLGHDGLYASGCSDVEAYGNTITCRTNSGLRLYNTNKASFHDNVITSEGSGGAGIEIQKYNTPAMDDIEVYNNVIYKTALAGIWIFGSGSYSASTANVHVHHNQIYDTGTKTSNSIIGGIVSNGFSGLIENNVIDGAYGAGIVQKTVYSPAPSGSGFLLTVRNNILSNSRSSSGGGSGYGINNELSGTHSFVLQNNCYYGSAGGDSRNVQLSASDIKVDPQFADRSSHDYHLKSIAGRWNGKSWITDSASSPCIDAGYIASDYSKEPQDNGGRINIGTYGNTKYASKSGTTEVVTNQAPVLNSIQDATVEIGESLTFTVSASDAEEDSLSYSASGLPTGATFDSESGIFAWTPAVGQEGTYSVTFVVSDGELTDSATAIINVSKQEDTSKQEDPSTITGEVYDNRLREASPDIVYQSSPFIDVGAMSIGSYRDIMWFDLSVYADYSEVNSATLSLYWYYPAGKARPEDTVIEIYRPADSWNPDYVSWNKKDKRVAWNNAGGDWYDRNGVLQGSTPYATITLEGSDLPDNRYYELDVTDLVNEYISSKYENTGFLIKARTENNNYIAFYSNDCGNENQKPKLTVTEEASVSPIDVQPIDVTVSGAKDNRLREASAENVYQSSAYVDVGALSGVGRYRDMMQFDLSEYADYSEVNSATLFLYWYYPAGKARPEDTVIEIYRPADSWNPDYVSWNKKDKRVAWNNAGGDWYDRNGVLQGSTPYATITLEGSDLPDNRYYELDVTDLVNEYISGKYENTGFLIKARTENNNYIAFYSSEAGGENQRPKLNLQLKQ | failed |
| MNLELLTLAVGAYAAVLAFLGWLGYRRTRSAADYLVGGREIHPVLMALAYGSTFISTSAIVGFAGVAALMGMGLLWLTMLNILLGVFVAFVVFGRPTRRLGAALDAHTFPELLGRRYRSRFIQGFAGGTIALLMPLYAAAVLIGGARFLEVQLRLDYHMALFVFAAITVGYVLFGGLKGVVYTDAFQAVLMVCGMLVLLVATYAQVGGLSAHQALTDLADQVPPALRAQGHRGWTAMPAAGSPLWWQMVSTIVLGVGIGVLAQPQLTVRFMTVKSGRELHRALVPGGLFLLLMAGVAYVVGSLTNLWYFQRTGKIALAIMTDPATGKPNVDRLMPLYTQAAMPEWFAYLFMLALLAAAMSTLSAQFHAIGTAIGRDLYEQAFRLGGGAERTVLLARAGILAGFAGTVLLAWNLGPGVIAIATALFFGMCAATFLPAFVSALFWARSTRAGVIAGMLAGFGAWALWVLFVHERESAALGVVKALTGRTSLGAGTTWALVDPIVVALPIAALVTVVGSLAGRAAPGAETGGPARTREGGLDAGLR | failed |
| MNLETKPIAETPNFIVLDQYEKIEQSGSYQSENRLEAELIADLQNQGYEYRKDLNSQSRLLENLRAQLQRLNDVAFSDGEWARFLTEYLDRPAENITDKTRKIHDDHIYDFAFDDGRLKNIYLLDKKNLARNHVQLINQFEQTGTHANRYDVTVLVNGLPLVQIELKKRGVAVREAFNQVHRYSKESFNSGNSLFKFLQIFVISNGTDTRYFANTTKRDKNSFDFTMNWARSDNHPIKDLKDFTATFLQKSVLLSVLLHYSVFDANDTLLIMRPYQIAAAERILWKINSSAQAKNWSGPESGGYVWHTTGSGKTLTGFKAARLATESAFIDKVFFVVDRKDLDYQTMKEYQRFSPDSVNGSESTAGLKRNLEKDGNKIIVTTIQKLNNLMKSEDNLPVYHRQVVFIFDECHRSQFGEAQKNLKKKFKKFCQFGFTGTPIFPENALGAETTAGVFGRELHSYVITDAIRDEKVLKFKVDYNDVRPQFKAVEAEQDEKELSAAENRQALLHPERIREITQYILSRFRQKTHRLNAGGKGFNAMFAVSSVDAAKCYYEAFKTQQAGSLHPLKTATIFSFAANEEQNAVGEIVDETFEPEAMDSSAKEFLQAAINDYNACFKTNFGTDSKAFQNYYRDLAKRVKNREVDLLIVVGMFLTGFDAPTLNTLFVDKNLRYHGLMQAFSRTNRIYDATKTFGNIVCFRDLEQATIDAITLFGDKNTKNVVLEKSYEEYMNGYTDSQTGEARRGYLDVAKELHERFPDPDKIETEKDKKDFAKLFGEYLRAENVLQNYDEFAALRELQNVDAADEDAMKAFQEKYYLSDEDVQEMRKVPMPSERAVQDYRSAYNDIRDWLRRQKAGEQKEQSKIDWDDVVFEVDLLKSQEINLDYILQLVFEHHKKIKGKAELVEEIRRIIRASIGHRAKEGLIVDFINDTDLDKVPDVPAILETFYTYAQEVMRHEAAGLIAAEGLNETAAKRYLTGSLKRGYASENGTELTETLPKMSPLNPQYLTKKQSVFQKIAAFVEKFAGIGADI | failed |
| MNLHTKTWVQRLPVPIDVAWDFFSQPGNLARITPPEMMLKAEGGNAGTAIYEGMKLNFVLYPFMMIPVRWTTEIMKVSKPDFFEDRQLSGPYEQWYHRHLFRDIEGGTEMTDIVEYALPFDLFGEVVEALIVGPRLDEVFEYRRCRVAEILGLEHHHHHH | failed |
| MNLIWFLIIGGLAGWLAGLIMKGKGFGVLANIGIGIVGSFIGGFLFGLLQLSAHGAIGRLVTATVGAVLLLAIVNKIKKG | failed |
| MNLNDYKGILVFAEQRDGILQNVGLELLGKATELAYEINKQIALKDAGDELADFAGKKEAAIKSVDVAAATLEEDDQELKNKVADIKKNNPDAAKVTALLVGHNIKNLAQDLIKAGADKVLVVDKPELEVYDTEAYAQVLTATINDQKPEIVLFGATTLGRDLAPRVSSRIATGLTADCTKLELLKDKERQLGMTRPAFGGNLMATIVSPDHRPQMATVRPGVMKKLPKSDDRTGEVVEFPVTLDTSKMKVKLLKVVKEGGNKVDISEAKILVSGGRGVGSKQNFELLEDLATEIGGIVSSSRAQVDAGNMPHDRQVGQTGKTVRPEVYFACGISGAIQHVAGMEESEFIIAINKDRFAPIFSVADLGIVGDLHKILPILTEEIKKYKATK | failed |
| MNLNIRIKNYWEGEAQGYSEAIEDELNGFERKAWSDLVLEYAPSKDRLDILDIGTGPGFFPIVLSQGGHNVTGIDLTENMIEFARLNLAREGASAKLVTMDCQNLKFPDNCFDLLVCRNLTWTLDDPAKAYKEWHRVLKPGGRVLIFDACWYLHLFDENMKIAYEKKEKEILMKYGHPMHQHKDQVEGDALSRKLFMSDKVRPQWDLDIMLKLGFSKVFADTSVGERILNEQQQDRNSMHPPFLVGGEK | failed |
| MNLPCQWPRSQQADKHGRFPINRDQRRAAGAGTRSGAGGQPPLGLDQYVQQALQLHQAGRRQEAESIYRQVLARQPKHAAAAHFLGLLLHQTGRSEEGLDLIERSVSLQPTNADFLNNFGTVMRDLGRVAAAIDFFRGAVDLRPEQLAARDNLGSSLKQLGRFEEAEDIYRGTVARNPFHVRARIGLAETLQEAGRLDEALAVFRESLTIRPKDADLLHGLGVGMMEKGKLDEAADLFRQALAVNPGMATAWLMLTQVKRQKERDAELAGMEAQHAKAPQDSLARMQLSFGLGKANDDLKDYNRAFDYFAEGNAIRRKGIDYDPVRTREEFAAMKTVFDAGFFERHRPSPISDDAPIFVVGMPRSGTTLVEQIIASHPQVYGAGELSILKKAVGKQFPTTMPGGFPWGVADTDDADFAEAGQAYLDMLHARYPHLSHVTDKMPGNFLLVGFIHMMMPKAKIIHCTRDAAATCLSIYKVHFRGDSHRYGYDLGELADFHNLYTDIMAHWHKVLPGVVHDVRYEDFVADQEGQSRALIDYLGLPWDDAVLSFHATDRPVRTASAAQVRQPMYQGSVDLWKRYGDRLKPLLDKLD | failed |
| MNLPILPTISTSFIVISAILIAIGWRQIWKRKIESHKKVMLAAAFFALAFFIIYASRTIFIGNTAFGGPDSIKIYYTIFLIFHINLATIGGILGLVQIITAFKDKFKVHRFVGPIASIVWFCTAITGVAVYLLLYVLYPGGETTSLLKATFGL | failed |
| MNLRLTASILGKLLMLFSFSFILPLIAAHVFEEPYHPFLIPAALSLLVGAVLGYGIKTESEFDSLRHKESFAIVALIWLFMSIFGSIPYIIFGISPVDAFFESMSGFTTTGASVLTPEELPKSLLLWRSLTQWIGGMGIIVLFLAIFPNVAKRSTVLFQAEYPGVSLSKLKPRIRDTALSLYKVYLLLTIAEVALLYALGLSLFDAINHTFTTLSTGGYSTHSESIAFFKDVRVEAVVAFFAFLGGANFALIYFLLSGKPVIFRNTEFRAYVCFLALASVVIAAVNLDRYSIFESLRYSIFQAVSIMTTTGFTTADFDAWSDSAKLILVVLMFIGGSSGSTGGGIKVIRIYLLIKYAVHQILRAAEPRTVRAVKFEGRAIKKEILDDIAAFFVLYILIFAVSSILVSLSGYDIVTSISATAATLGNVGPGLGLAGAAENYASFPSLTKILLAVNMWIGRLEIFTVVSLFIPTFWRERW | failed |
